Results on 41 sequences are retold here after the nanobody polyreactivity screen of Harvey et al. (2022).

The data set can be described thus: yeast display, Sf9 membrane polyspecificity reagent, FACS + sequencing; frameworks hold sequencing errors. The gist of the method:
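Nanobodies came from a synthetic yeast display library in Saccharomyces cerevisiae BJ5465, induced with galactose for 36–48 hours and stained for 1 hour at 4 °C with 10% biotinylated, detergent-solubilized Sf9 membrane reagent. Cells were enriched on streptavidin microbeads and then FACS-sorted, with low and high (top ~1%) gates set on anti-HA fluorescence for expression and streptavidin fluorescence for reagent binding. Each polyreactivity label reflects the gate a clone came from. Genes were amplified by colony PCR, sequenced by MiSeq 2 × 250 and filtered by CDR length.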
In the case of “QVQLVESGGGLVQAGGSLRLSCAASGFTFSTYAMGWDRQAPGKERELVAAISRSGGSTYYADSVKGRFTISRDNAKNTVYLQMNSLKPEDTAVYYCAVRPFRSAGGSVTRGAYYYWGQGTQVTVSS”, the “polyreactivity (PSR sort gate)” value is recorded as “high polyreactivity”. As for “QVQLVESGGGLVQAGGSLRLSCAASGFTFSTYDMGWYRQAPRKERELVAAIDYIDGSTYYADSVKGRFTISRDNAKNTVDLQMNCLKPEDTAVYYCAAHYYYDEFGYWGQGTQVTVSS”, the entry is “low polyreactivity”; as for “QVQLVESGGGLVQAGGSLRLSCAASGFTFSVNAMGWYRQAPGKERELVAAISSRGGSTYYADSVKGRFTISRDNAKNTVYLQMNSLKPEDTAVYYCAKYPFYRSRHLGYWGQGTQVTVSS”, “high polyreactivity”. As to “QVQLVESGGGLVQAGGSLRLSCAASGFTFSWYVMGWYRQAPGKERELVATITNRGGSTYYADSVKGRFTISRDNAKNTVYLQMNSLKPEDTAVYYCAARNYGKYRTNDYWGQGTQVTVSS”, the “polyreactivity (PSR sort gate)” value is “high polyreactivity”. Next, “QVQLVESGGGLVQAGGSLRLSCAASGFTFSYNAMGWYRQAPGKERELVAAISSGGRTYYADSVKGRFTISRDNAKNTVYLQINSLKPEDTAVYYCNAEPDQYTLRSITNDEDYWGQGTQVTVSS”: “low polyreactivity”; “QVQLVESGGGLVQAGGSLRLSCAASGFTFSYYAMGGYRQAPGKERELVAGIDYSGGSTYYADSVKGRFTISRDNAKNTVYLQMNSQKPEDTAVFYCNAVYARKYYYSHGYDYWGQGTQVTVSS”: “high polyreactivity”; “QVQLVESGGGLVQAGGSLRLSCAASGFTFSYYAMGWSRQAPGKERELVAAITTSGGRTYYADSVKGRFTISRDNAKNTFYLQMNSLKPEDTAVYYCAATYPRYYSGEFDYWGQGTQVTVSS”: “high polyreactivity”. Next, “QVQLVESGGGLVQAGGSLRLSCAASGFTFSYYAMGWYRQAPGKERELVAAITSSAGSTYYADSVKGRFTISRDNAKNTVYLQMNSLKPEDTAVYYCNAVYSKLNGGYDYWGQGTQVTVSS”: “low polyreactivity”; “QVQLVESGGGLVQAGGSLRLSCAASGFTFSYYAMGWYRQAPGKERELVAGITTGGGTNYADSVKGRFTISRDNAKNTVYLQMNSLKPEDTAVFYCNADYWYKYDYWGQGTQVTVSS”: “low polyreactivity”; “QVQLVESGGGLVQAGGSLRLSCAASGFTFSYYAMGWYRQSPGKERELVASISRSGNTYYADSVKGRFTISRDNAKNTVYLQMKSLKPEDTAVYYCAAKRKSYYSYNFDYWGQGTQVTVSS”: “high polyreactivity”. For “QVQLVESGGGLVQAGGSLRLSCAASGFTFSYYARGWYRQAPGKERELVAAISINGGRTYYADSVKGRFTISRDNAKNTVYLQMNSLKPEDTAVYYCNAVSYAYTVRMYYWGQVTQVTVSS”, the “polyreactivity (PSR sort gate)” value was “high polyreactivity”. Consider “QVQLVESGGGLVQAGGSLRLSCAASGFTFSYYSMGRYRQAPGKERELVARISFSGTRTYYADSVKGRFTISRDNAKNTVYLQMNSLKPEDTAVYYCARRYRDYGRYGYWGQGTQVTVSS”, for which the “polyreactivity (PSR sort gate)” value is “high polyreactivity”. Next, “QVQLVESGGGLVQAGGSLRLSCAASGFTFTANGMGWYIQAPGKERELLAAINWSGSRTYYADSVKGRFTISRDNAKNTVYLQMNSLKPEDTAVYYCNTATSKSSYRHYDYWGQGTQVTVSS”: “high polyreactivity”.

For the sequence “QVQLVESGGGLVQAGGSLRLSCAASGFTFTAYAMGWYRQAPGKERELVAAISNRGGRTYYADSVKGRFTFSRDNAKNTVYLQMNSLKPEDTAVYYCAAGYSYAQYSYPFLSFAFGYWGQGTQVTVSS”, the “polyreactivity (PSR sort gate)” value is “high polyreactivity”. Turning to “QVQLVESGGGLVQAGGSLRLSCAASGFTFTAYARGWYRQAPGKERELVAAINWSGSRTSYADSVKGRFTISRDNAKNTVYLQMNSLKPEDTAVYYCNPATSKSSYRHYDYWGQGTQVTVSS”, the “polyreactivity (PSR sort gate)” value is reported as “high polyreactivity”. Consider “QVQLVESGGGLVQAGGSLRLSCAASGFTFTDNAMGRYRQAPGKERELVAAISEGSGITYYADSVKGRFTISRDNAKNTVYLQMNSLKPEDTAVYYCAADWLSKYDYWGQGTQVTVSS”, for which the “polyreactivity (PSR sort gate)” value is “low polyreactivity”. As for “QVQLVESGGGLVQAGGSLRLSCAASGFTFTDYAMGWYRQAPGKERELVAAIYGIGGSTYYADSVKGRFTISRDNAKITVYLKMKSLKPEDTAVYYWNAYRSFTGYDYDYWGQGTQVTVSS”, the entry is “high polyreactivity”; as for “QVQLVESGGGLVQAGGSLRLSCAASGFTFTHYAMGWYREAPGKERELVAAISTSVGSKYYADSVKGRFTISRDNAKNTVYVQMNSLKPEDTAVYYFAARRDGWVQWGNYYWGQVTQVTVSS”, “low polyreactivity”.

“QVQLVESGGGLVQAGGSLRLSCAASGFTFTINAMGWYRQAPGKERELVAAINWRGGSTYYADSVKGRFTISRDNAKNTVYLQMNSLKPEDTAVYYCNAVASIYSYAYPPYWGREHLNYWGQGTQVTVSS”: the “polyreactivity (PSR sort gate)” value is listed as “low polyreactivity”. Next, “QVQLVESGGGLVQAGGSLRLSCAASGFTFTIYAMGWYRPAPGKEMELVAAITGRGGSTYYADSVKGRFTISRDNAKNTVYLRMNSLKPEDTAVYYCADSQRSGHPSYDYWGQGTQVTVSS”: “high polyreactivity”; “QVQLVESGGGLVQAGGSLRLSCAASGFTFTKYAMGWYRQAPGKERELVAAITSSGGGTYYADSVKGRFTISRDYAKNTVYLQMNRLKPVDTAVYYCARDSRTGYYYWGQGTQVTVSS”: “high polyreactivity”; “QVQLVESGGGLVQAGGSLRLSCAASGFTFTLNAMGWYRQAPGKASEFVAAISTGGSTYYADSVKGRFTISRHNAKNTVYLQMNSRKPEDTAVYYCAAYRYSYHGSYQETYYYWGQGTQVTVSS”: “high polyreactivity”.

With “QVQLVESGGGLVQAGGSLRLSCAASGFTFTLNAMGWYRQAPGKERELVAGISSGGSTNYADSVKGRFTISRDNAKNTVYLQMNSLKPEDTAVYYCAADRGYVWRYDYWGQGTQVTVSS”, the “polyreactivity (PSR sort gate)” value is “low polyreactivity”. Turning to “QVQLVESGGGLVQAGGSLRLSCAASGFTFTNYAMGWYRQAPGKEREFVARITWSGGSTYYADSVKGRFTISRDNAKNTVYLQMNSLKPEDTAVYYCAARGWLVRSFIYDYWGQGTQVTVSS”, the “polyreactivity (PSR sort gate)” value is “high polyreactivity”. In the case of “QVQLVESGGGLVQAGGSLRLSCAASGFTFTPNAMGWYRQAPGKERELVAAITSDGTTYYADSVKGRFTISRDNAKNTVYLQMNSLNPEDTAVYYCAADGGISAGANSGYDYWGQGTQVTVSS”, the “polyreactivity (PSR sort gate)” value is listed as “high polyreactivity”.

Take “QVQLVESGGGLVQAGGSLRLSCAASGFTFTRNAMGWYRQAPGKEREFVAAITRSGGSTYYADSVKGRFTISRDNAKNTVYLQMNSLKPEDTAVYYCNKRSPSTIRFDYWGQGTQVTVSS”: the “polyreactivity (PSR sort gate)” value is reported as “high polyreactivity”.

Consider “QVQLVESGGGLVQAGGSLRLSCAASGFTFTRNAMGWYRQAPGKERELVAAISGSGGSTYYADSVKGRFTISRDNAKNTVYLQMNSLKPEDTAVYYCAAPLPWAYAYDYWGQGTQVTVSS”, for which the “polyreactivity (PSR sort gate)” value was “high polyreactivity”. As for “QVQLVESGGGLVQAGGSLRLSCAASGFTFTRYAMGWYRQAPGKERELVAAMTTNSGSRTYYADSVKGRFTISRDNAKNTVYGQMNSLKPEDTAVYYCAADGPVVRGYYWGQGTQVTVSS”, the entry is “high polyreactivity”. “QVQLVESGGGLVQAGGSLRLSCAASGFTFTRYTMGWYRQAPGKERELVAHITSGDSTNYADSVKGRFTISRDNAKNTVYLQKNSLKPEDTAVYYCNAEVKGFFYDYDYWGQGTQVTVSS”: the “polyreactivity (PSR sort gate)” value was “low polyreactivity”. As for “QVQLVESGGGLVQAGGSLRLSCAASGFTFTRYTMGWYSQEPGKERELVARITRSGGSTYYADSVKGRFTISRDNAKNTVYLQMNSLKPEDTAVYYCAADTWSYTTRYYYWGQGTQVTVSS”, the entry is “high polyreactivity”.

On to “QVQLVESGGGLVQAGGSLRLSCAASGFTFTVYAMGWYRQAPGKERELVAAISGIGGSTYYADSVKGRFTISRDNAKNTVYLQMNSLKPEDTAVYYCNAVSGDSGDYWGQGTQVTVSS”, for which the “polyreactivity (PSR sort gate)” value is reported as “low polyreactivity”. As for “QVQLVESGGGLVQAGGSLRLSCAASGFTFTWYAMGWYRQAPGKQRELVASISRSGGSTYYAESVKGRFTISRDNAKNTVYLQMNSRKPEDTAVYYCAAVSRTRSYDYWGQGTQVTVSS”, the entry is “high polyreactivity”; as for “QVQLVESGGGLVQAGGSLRLSCAASGFTFTYNTMGWYRQAPGKERELVAAISALGTSTYYADSVKGRFTISRDNAKNTVYLQMNSLKPEDTEVYYCAAAYRIGSGYWGQGTQVTVSS”, “high polyreactivity”. As for “QVQLVESGGGLVQAGGSLRLSCAASGFTFTYNTMGWYRQAPGKEREMVAAISSTGGSTYYADSVKGRFTISRDNAKNTVYLQMNSLKPEDTAVYYCNACLPFSGRKRYGYWGQGTQVTVSS”, the entry is “high polyreactivity”; as for “QVQLVESGGGLVQAGGSLRLSCAASGFTFTYYAMGWNRQEPGKERELVAAISGNGGSTYYADSVKGRFTISRDNAKNTVYLQMNRLKPEDTAVYYCNALPTSVGRWYRGDYWGQGTLVTVSS”, “high polyreactivity”.

For the sequence “QVQLVESGGGLVQAGGSLRLSCAASGFTFTYYAMGWYRQAPGKERELVAAISASGDSTYYADSVKGRFTISRDNAKNTVYLQMNILKPEDTAVYYCAALYWYSRSSWDYDYWGQGTQVTVSS”, the “polyreactivity (PSR sort gate)” value is on record as “high polyreactivity”. Turning to “QVQLVESGGGLVQAGGSLRLSCAASGFTFTYYTMGWYRQATGKERELVAGISRSGGSTYYADSVKGRFTISRDYAKNTVYLQMNSLKPVDTAVYYCAAGSIQYRPTYTGDYWGQGTQVTVSS”, the “polyreactivity (PSR sort gate)” value is given as “high polyreactivity”. As for “QVQLVESGGGLVQAGGSLRLSCAASGFTFVDYAMGWYRQAPGKERELVAAISSSGDSTYYADSVKGRFTISRYNAKNTVYLQMNSLKPEDNAVYYCAAEYDREEYSGYDYLGQGTQVTVSS”, the entry is “low polyreactivity”; as for “QVQLVESGGGLVQAGGSLRLSCAASGFTFVFYAMGWYRQAPGKERELVAAISSGGGGTYYADSVKGRFTISRDNAKNTVYLQMNSLKPEDTAVYYCNTRYHKVYYGNDYWGQGTQVTVSS”, “high polyreactivity”. Turning to “QVQLVESGGGLVQAGGSLRLSCAASGFTFVGNAMGWYRQAPGKERELVAAIRWSSGSTYYADSVKGRFTISRDNAKNTVYLQMNSLKPEDTAVYYCNAVYSVFYEYDYCGQGTQVTVSS”, the “polyreactivity (PSR sort gate)” value is given as “low polyreactivity”. For “QVQLVESGGGLVQAGGSLRLSCAASGFTFVGYAMGWYRQAPGKERELVASINYSGGSTYYADSVKGRFTISRDNAKNTVYVQMNSLNPEDTAVYYCAAGGYPWYLRRGGFACYDYWGQGTQVTVSS”, the “polyreactivity (PSR sort gate)” value is “low polyreactivity”.
